Measured values taken from patent publication US20240158515A1 (Regeneron, published 2024).

Experiments:
[1] = target: T1, human FGFR3c expressed with a C-terminal myc-myc-hexahistidine tag (hFGFR3c.mmH) (human, UniProt P22607 23-375); assay: SPR Biacore, mAb captured on anti-hFc, 25C
T1 construct: also called REGN3155; monomeric human FGFR3c
Protocol: (§1) The CM5 Biacore sensor surface was derivatized by amine coupling with a monoclonal mouse anti-human Fc monoclonal antibody (REGN2567). […] Antibody-reagent association was monitored for 5 minutes while dissociation in HBS-EP running buffer was monitored for 10 minutes. At the end of each cycle, the anti-FGFR3 antibody capture surface was regenerated using a 10 sec injection of 20 mM phosphoric acid. All binding kinetics experiments were performed at 25° C.
(§2) The specific SPR-Biacore sensorgrams were obtained by a double referencing procedure. The double referencing was performed by first subtracting the signal of each injection over a reference surface (anti-hFc) from the signal over the experimental surface (anti-hFc-captured anti-FGFR3 antibodies) thereby removing contributions from refractive index changes. In addition, running buffer injections were performed to allow subtraction of the signal changes resulting from the dissociation of captured antibodies from the coupled anti-hFc surface. Kinetic association (kₐ) and dissociation (kd) rate constants were determined by fitting the real-time sensorgrams to a 1:1 binding model using Scrubber v2.0c curve fitting software.

[2] = target: T2, human FGFR3b expressed with a C-terminal murine Fc tag (hFGFR3b.mFc) (human); assay: SPR Biacore, mAb captured on anti-hFc, 25C
T2 construct: called dimeric; also called REGN3153; dimeric human FGFR3b
T2 chain: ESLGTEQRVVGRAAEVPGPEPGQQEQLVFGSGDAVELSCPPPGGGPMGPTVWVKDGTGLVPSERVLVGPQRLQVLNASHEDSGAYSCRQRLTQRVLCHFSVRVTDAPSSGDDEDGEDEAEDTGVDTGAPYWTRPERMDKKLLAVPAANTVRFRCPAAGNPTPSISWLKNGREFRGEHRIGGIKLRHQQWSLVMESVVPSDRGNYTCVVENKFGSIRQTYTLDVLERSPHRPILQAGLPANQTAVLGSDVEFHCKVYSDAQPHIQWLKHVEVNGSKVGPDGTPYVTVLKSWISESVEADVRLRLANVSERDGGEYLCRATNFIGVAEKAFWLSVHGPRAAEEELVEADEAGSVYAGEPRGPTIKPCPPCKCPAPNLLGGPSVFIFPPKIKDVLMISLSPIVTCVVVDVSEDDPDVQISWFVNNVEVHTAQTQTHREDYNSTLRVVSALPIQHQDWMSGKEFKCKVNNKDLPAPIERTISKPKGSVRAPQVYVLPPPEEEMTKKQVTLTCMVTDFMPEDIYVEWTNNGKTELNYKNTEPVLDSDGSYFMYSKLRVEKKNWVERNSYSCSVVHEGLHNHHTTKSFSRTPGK
Protocol: as §1, §2

[3] = target: T3, human FGFR3b expressed with a C-terminal myc-myc-hexahistidine tag (hFGFR3b.mmH) (human); assay: SPR Biacore, mAb captured on anti-hFc, 25C
T3 construct: also called REGN3152; monomeric human FGFR3b
T3 chain: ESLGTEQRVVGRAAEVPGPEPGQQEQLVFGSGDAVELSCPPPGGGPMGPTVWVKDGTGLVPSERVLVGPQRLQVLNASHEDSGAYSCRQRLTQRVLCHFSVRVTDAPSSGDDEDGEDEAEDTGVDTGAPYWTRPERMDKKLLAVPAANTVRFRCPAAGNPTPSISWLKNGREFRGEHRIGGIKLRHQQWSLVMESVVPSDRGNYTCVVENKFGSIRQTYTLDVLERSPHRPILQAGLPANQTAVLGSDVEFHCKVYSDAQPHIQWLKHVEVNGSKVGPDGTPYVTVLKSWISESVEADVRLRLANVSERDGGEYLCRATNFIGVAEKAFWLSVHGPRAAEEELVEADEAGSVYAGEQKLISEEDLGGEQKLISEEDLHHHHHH
Protocol: as §1, §2

[4] = target: T4, murine FGFR3b expressed with a C-terminal myc-myc-hexahistidine tag (mFGFR3b.mmH) (murine); assay: SPR Biacore, mAb captured on anti-hFc, 25C
T4 construct: also called REGN3215; monomeric murine FGFR3b
T4 chain: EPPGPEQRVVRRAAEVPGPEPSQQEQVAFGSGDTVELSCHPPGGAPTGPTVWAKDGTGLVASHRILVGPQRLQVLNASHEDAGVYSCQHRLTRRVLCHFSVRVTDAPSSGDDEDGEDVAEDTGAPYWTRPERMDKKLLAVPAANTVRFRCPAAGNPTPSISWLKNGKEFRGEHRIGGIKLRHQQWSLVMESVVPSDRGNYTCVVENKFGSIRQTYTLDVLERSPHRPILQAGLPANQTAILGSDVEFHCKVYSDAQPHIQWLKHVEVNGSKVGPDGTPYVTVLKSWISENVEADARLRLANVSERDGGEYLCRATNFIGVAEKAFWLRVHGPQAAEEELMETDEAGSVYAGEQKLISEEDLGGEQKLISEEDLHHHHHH
Protocol: as §1, §2

[5] = target: T5, cynomolgus FGFR3b expressed with a C-terminal myc-myc-hexahistidine tag (mfFGFR3b.mmH) (cynomolgus); assay: SPR Biacore, mAb captured on anti-hFc, 25C
T5 construct: also called REGN3521; mf FGFR3b ecto (R357G)(E23-G377;R357G).mmH
T5 chain: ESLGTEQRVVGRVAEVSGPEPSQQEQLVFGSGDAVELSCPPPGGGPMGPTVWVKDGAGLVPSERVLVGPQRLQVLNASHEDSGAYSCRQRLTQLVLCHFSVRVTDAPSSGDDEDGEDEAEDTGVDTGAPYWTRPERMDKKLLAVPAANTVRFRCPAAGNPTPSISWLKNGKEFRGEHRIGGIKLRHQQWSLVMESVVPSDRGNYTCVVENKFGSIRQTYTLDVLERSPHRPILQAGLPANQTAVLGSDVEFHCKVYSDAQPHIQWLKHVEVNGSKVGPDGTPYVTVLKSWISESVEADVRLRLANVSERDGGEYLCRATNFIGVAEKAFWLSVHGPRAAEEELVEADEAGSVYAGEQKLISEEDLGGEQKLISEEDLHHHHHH
Protocol: as §1, §2

[6] = target: T4, murine FGFR3b expressed with a …; assay: SPR Biacore, mAb captured on anti-hFc, 25C; row marked NB
Protocol: as §1, §2

[7] = target: T2, human FGFR3b expressed with a …; assay: competition ELISA: 4 nM hFGFR3b-mFc binding to plate-coated hFGF acidic
Protocol: (§3) The fixed concentration of hFGFR3b or hFGFR3c proteins was selected to be near the concentration that generated 50% of the maximal binding (EC₅₀ value) to plate-adhered hFGF acidic or hFGF basic protein. […] The plates were then developed using TMB substrate solution (BD Biosciences) according to the manufacturer's recommended procedure and absorbance at 450 nm was measured on a Victor X5 plate reader.
(§4) Binding data were analyzed using a sigmoidal (four-parameter logistic) dose-response model using GraphPad Prism software. […] Percent blocking of FGFR3 antibody at a given concentration was calculated based on the formula shown below.
(§5) The ability of anti-FGFR3 antibodies to block human FGFR3b binding to hFGF acidic protein or hFGFR3c binding to hFGF acidic or hFGF basic proteins was evaluated using a sandwich ELISA-based blocking assay.

hFGFR3c-hFc [8] = target: T6, hFGFR3c-hFc (human, UniProt P22607 23-375); assay: competition ELISA: 0.4 nM hFGFR3c-hFc binding to plate-coated hFGF acidic
T6 construct: range 23-375; Bought (R&D Systems); also called dimeric human FGFR3c; R&D Systems 766-FR-050; not shown: Fc portion of human IgG1, amino acids Pro100-Lys330
T6 sequence (looked up): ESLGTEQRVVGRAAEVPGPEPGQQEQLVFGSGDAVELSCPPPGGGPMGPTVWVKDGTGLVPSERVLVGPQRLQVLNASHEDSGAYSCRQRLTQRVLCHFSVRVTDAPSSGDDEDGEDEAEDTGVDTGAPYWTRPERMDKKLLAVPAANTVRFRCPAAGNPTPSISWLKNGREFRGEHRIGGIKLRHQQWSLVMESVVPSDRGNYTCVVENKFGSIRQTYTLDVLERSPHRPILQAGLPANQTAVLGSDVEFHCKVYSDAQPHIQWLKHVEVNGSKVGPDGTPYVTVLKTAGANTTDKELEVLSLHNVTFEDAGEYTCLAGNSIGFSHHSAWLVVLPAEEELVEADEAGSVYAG
Protocol: as §3, §4, §5

hFGFR3c-hFc [9] = target: T6, hFGFR3c-hFc; assay: competition ELISA: 7 nM hFGFR3c-hFc binding to plate-coated hFGF basic
Protocol: as §3, §4, §5

[10] = target: full length human FGFR3b on BaF3 cells (BAF3/FGFR3b, ACL11991) (human, UniProt P22607 23-808); assay: cell-based or functional assay

B1: H4H30117P2 (antibody, human IgG4 S228P, kappa, V domains shown)
VH: QVQLVQSGAEVKKPGSSVKVSCKASGDTFSNYVIGWVRQAPGQGLEWMGGIIPIFGTTNYAQQFQGRVTITTDESTSTAYMELSSLRSEDTAVYYCARDGNYGDYFDYWGQGTLVTVSS
VL: not shown
90 nM hFGFR3c.mmH Bind (RU) [1]: 166 RU
koff [1]: 0.00732 s⁻¹
kon [1]: 595000 M⁻¹ s⁻¹
t½ [1]: 1.6 min
30 nM hFGFR3b.mFc Bind (RU) [2]: 337 RU
koff [2]: 0.000133 s⁻¹
kon [2]: 787000 M⁻¹ s⁻¹
t½ [2]: 87 min
90 nM hFGFR3b.mmH Bind (RU) [3]: 178 RU
koff [3]: 0.0063 s⁻¹
kon [3]: 656000 M⁻¹ s⁻¹
t½ [3]: 1.8 min
binding result [4]: no binding (tested: 90 nM)
90 nM mfFGFR3b.mmH Bind (RU) [5]: 148 RU
Kd [5]: 15.8 nM
koff [5]: 0.0087 s⁻¹
kon [5]: 550000 M⁻¹ s⁻¹
t½ [5]: 1.3 min
90 nM mFGFR3b.mmH Bind (RU) [6]: 0.9 RU

B2: REGN6331 (antibody, human IgG1, kappa, V domains shown)
VH: EVQLVESGGGLVQPGGSLRLSCAASGFTFTSTGISWVRQAPGKGLEWVGRIYPTSGSTNYADSVKGRFTISADTSKNTAYLQMNSLRAEDTAVYYCARTYGIYDLYVDYTEYVMDYWGQGTLVTVSS
VL: DIQMTQSPSSLSASVGDRVTITCRASQDVDTSLAWYKQKPGKAPKLLIYSASFLYSGVPSRFSGSGSGTDFTLTISSLQPEDFATYYCQQSTGHPQTFGQGTKVEIKR
notes: hIgG1 comparator; also called COMP6331; anti-FGFR3-hIgG1 comparator
% Blocking at 200 nM mAb [7]: 99%
IC50 [7]: 1.5 nM
IC50 (hFGFR3c-hFc [8]): 0.1 nM
IC50 (hFGFR3c-hFc [9]): 8.9 nM
IC50 [M], BaF3 proliferation (CellTiter-Glo) with 1 nM FGF1 + 5 ug/ml heparin [10]: 5.79e-11 M
Max Blocking (%), BaF3 proliferation (CellTiter-Glo) with 1 nM FGF1 + 5 ug/ml heparin [10]: 97.6%
90 nM hFGFR3c.mmH Bind (RU) [1]: 39.6 RU
Kd [1]: 2.42 nM
t½ [1]: 8.77 min
90 nM hFGFR3b.mmH Bind (RU) [3]: 58.4 RU
Kd [3]: 0.697 nM
t½ [3]: 18.8 min
